Reference: patent US5801017A, “Production of recombinant factor Xa inhibitor of leech Hirudo medicinalis” (Bio-Technology General Corp., priority 1994, dated 1998)
Values joined by “and” are separate entries in the source; they are usually repeats but may differ in a detail not shown here. Equal entries are not always repeated.

Key:
[1] = biological target: bovine Factor Xa (bovine) (UniProt P00743)
[2] = biological target: bovine Factor Xa (bovine) (UniProt P00743); remark: listed apart in the source
Factor Xa [3] = experiment: prothrombinase complex assay, modified protocol (50 pM FXa, 1.35 µM prothrombin)
Factor Xa [4] = biological target: Factor Xa
Factor Xa [5] = experiment: prothrombinase complex assay (FXa 250 pM, prothrombin 2.67 µM, FVa, cephalin, Ca++)
human plasma = experiment: APTT coagulation assay in human plasma; assay type: biochemical
Protocol: (§1) APTT (activated partial thromboplastin time) of fresh murine or human plasma was monitored by visual assessment of its clotting in the absence or presence of various amounts of FXaI. Briefly, FXaI (up to 50 μl), 100 μl of plasma and 100 μl of partial thromboplastin (Actin-FS) were incubated for 3 minutes at 37° C. The coagulation cascade was activated by the addition of 100 μl of 20 mM CaCl2. The FXaI concentration in the abscissa is based on the assumption that 1 mu=1 pmol. Murine plasma--.circle-solid.; human plasma--.diamond-solid.. The arrows indicate the FXaI concentration at which doubling of the APTT is obtained.
(§2) The inhibitory activity of FXaI was also assayed as the increase of the activated partial thromboplastin time (APTT) essentially as described in Spaethe, Haemostasis, AHS/Deutschland GmbH, Munich (1984), using as reagent Actin FS (Dade), which contains ellagic acid for activation of Factors XII and Factor XI, and soy bean phospholipid. Under these conditions, and in the presence of 20 mM CaCl2, only the intrinsic pathway of coagulation is activated.
(§3) Isoform A (the major fraction of naturally occurring FXaI isolated from DLS) was used in these experiments. […] The protein concentration of this batch was assayed by SDS-Bradford (Macart and Gerbaut, Clin. Chim. Acta 122:93-101 (1982)) and was determined to be ~20 μg/ml.

murine plasma = experiment: APTT coagulation assay in murine plasma; assay type: biochemical
Protocol: as §1, §2, §3

FXa = experiment: chromogenic FXa inhibitory activity assay (hydrolysis of CHG); assay type: biochemical, bovine; conditions: for Inhibitory activity (specific activity), FXa: 1 mu = amount causing 50% inhibition with 2 nM FXa
Protocol: Increasing amounts of FXaI purified on Mono-Q were preincubated for 3 minutes with 2 pmol bovine FXa in a 1 ml cuvette. The initial rate of hydrolysis of the substrate CHG was monitored at 405 nm (see Example 2). Fraction 47 was the peak fraction of a particular purification experiment.
The assay of FXa inhibitory activity is based on the inhibition of the FXa-mediated hydrolysis of the chromogenic substrate methoxycarbonyl-D-cyclohexylglycyl-glycyl-arginyl p-nitroanilide (CHG) as described below.
The appropriate substrate concentration was determined from the molar absorbance which is 8210 at 342 nm. The reaction mixture contains 50 mM Tris-HCl pH 8.2, 5 mM CaCl2, 200 mM NaCl, 0.1% PEG, 40 μM substrate, and approximately 2 nM FXa. The FXa concentration is determined more precisely from the initial (first 20 seconds) rate of CHG hydrolysis at 40 μM in the absence of inhibitor based on the kinetic parameters mentioned above.
Inhibition of the increase in absorbance may be observed in the presence of the FXa inhibitory activity of an FXa inhibitor such as FXaI of the present invention. The inhibitor concentration is the difference in absorbance between the reaction in the presence and absence of inhibitor multiplied by the FXa concentration.
This determination assumes the formation of a 1:1 enzyme-inhibitor complex, and further assumes that the dissociation constant is low enough (i.e., tight binding) to enable essentially total binding of the inhibitor (FXaI) to the enzyme (FXa). In fact, the saturation shape of the dose-response curve (FIG. 3) provides evidence that a finite and not negligible dissociation of the inhibitor-enzyme complex occurs under these conditions. The dose response curve is represented by the degree of inhibition versus FXaI concentration and is further described in Section 5.2.
The degree of dissociation of the FXa-FXaI complex is characterized by the inhibition constant (Ki) and may be determined from the inhibited velocity of the hydrolysis of the chromogenic substrate CHG. […] The Ki of naturally occurring FXa in the chromogenic assay is about 9 nM.
The determination of inhibitor concentration determined by the above method is therefore probably underestimated. It was found useful to define the FXaI concentration as the protein concentration (IC50) required to obtain a constant degree of inhibition, usually 50% and to define the amount causing 50% inhibition under these reaction conditions to be 1 milliunit (mu) or 1 pmol. IC50 is generally higher than Ki, and depending on the type of inhibition, can be shown to depend variously on substrate concentration, Ki, Km and other factors (Segel, I. (1974) "Enzyme Kinetics", Wiley Interscience). In fact, the range of values of IC50 was determined to be about 10-20 nM.
The FXaI activity assay used to determine concentration during purification and characterization was performed in an Elisa Titertek Twin Reader, Type 380 (EF LAB). The final activity measurement of purified protein was also performed in a Phillips (model PU 8720) UV/Vis scanning spectrophotometer.

thrombin [6] = biological target: thrombin
[7] = biological target: bovine Factor Xa (bovine) (UniProt P00743); remark: listed apart in the source
thrombin [8] = experiment: thrombin inhibition assay according to Lottenberg et al.; assay type: biochemical
Protocol: The refolded and dialyzed protein so obtained was assayed for FXa inhibitory activity by the biochemical chromogenic assay described in Example 2. The results are shown in Table 6 as milliunits per mg protein (mu/mg). The amount of protein causing 50% inhibition in an assay mixture containing 2 nM FXa is defined as 1 mu. In addition, the refolded protein was also tested for its inhibitory effect on thrombin, another proteolytic enzyme of the coagulation cascade, which was assayed according to Lottenberg et al. Methods Enzymol. 80:341-361 (1981).

[9] = biological target: FXaI prepeptide expressed by plasmid pFSHI-6 (Met-His-His-His-His-His-His-Gly-Thr-Asp-Asp-Asp-Asp-Lys-FXaI) (Hirudo medicinalis)
[10] = biological target: bovine Factor Xa (bovine) (UniProt P00743); remark: listed apart in the source
Target sequence in this assay (P00743 41-492): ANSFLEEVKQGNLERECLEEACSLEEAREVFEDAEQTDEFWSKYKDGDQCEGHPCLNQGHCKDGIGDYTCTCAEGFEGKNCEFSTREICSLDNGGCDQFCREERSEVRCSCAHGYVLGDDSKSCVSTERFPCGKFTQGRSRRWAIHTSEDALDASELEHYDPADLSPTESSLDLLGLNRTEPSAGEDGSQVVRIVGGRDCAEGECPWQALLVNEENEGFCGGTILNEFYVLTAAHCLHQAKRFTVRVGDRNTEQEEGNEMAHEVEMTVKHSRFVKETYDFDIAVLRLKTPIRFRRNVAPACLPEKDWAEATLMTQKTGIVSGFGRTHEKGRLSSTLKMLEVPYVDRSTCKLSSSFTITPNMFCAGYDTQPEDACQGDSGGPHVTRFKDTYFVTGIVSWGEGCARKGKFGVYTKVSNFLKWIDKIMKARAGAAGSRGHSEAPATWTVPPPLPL

Factor Xa [11] = biological target: Factor Xa; remark: listed apart in the source
[12] = biological target: bovine Factor Xa (bovine) (UniProt P00743); remark: listed apart in the source
Target sequence in this assay (P00743 41-492): as above

[13] = biological target: bovine Factor Xa (bovine) (UniProt P00743); remark: listed apart in the source
Target sequence in this assay (P00743 41-492): as above

[14] = biological target: bovine Factor Xa (bovine) (UniProt P00743); remark: listed apart in the source
Target sequence in this assay (P00743 41-492): as above

isoform A of naturally occurring FXaI isolated from DLS
activity in the chromogenic assay [1]: 164 mu/ml

naturally occurring FXaI (Factor Xa inhibitor) purified from dilute leech saliva (DLS) of Hirudo medicinalis
IC50 in the chromogenic FXa assay [2]: 10 to 20 nM | Ki (Factor Xa [3]): 0.12 nM | IC50 in the prothrombinase complex assay (generation of thrombin from prothrombin) (Factor Xa [4]): 0.19 nM | Ki (Factor Xa [5]): 0.072 nM

Isoform A: major fraction of naturally occurring FXaI from DLS, eluted by low salt gradient, 13-14 kD
concentration causing doubling of the APTT (human plasma): 10 mu/ml | concentration causing doubling of the APTT, based on protein concentration (human plasma): 87 nM | concentration causing doubling of the APTT (murine plasma): 3.5 mu/ml | concentration causing doubling of the APTT, based on protein concentration (murine plasma): 30 nM | activity in the chromogenic assay, equivalent (FXa; assuming tight binding between FXa and inhibitor): 164 pmol/mL | activity in the chromogenic assay (FXa; batch of ~20 μg/ml protein): 164 mu/ml

Met-His-His-His-His-His-His-Gly-Thr-Asp-Asp-Asp-Asp-Lys-FXaI [FXaI prepeptide]
FXa inhibitory specific activity (FXa; prior to cleavage with enterokinase): 1000-1200 mu/mg protein

isoform B of naturally occurring FXaI isolated from DLS
Specific activity, mu/mg (inhibition of thrombin) (thrombin [6]): < 1 mu/mg | Specific activity, mu/mg (inhibition of FXa, chromogenic assay) [7]: 507 mu/mg

Refolded 11"f": refolded fusion protein: 63 N-terminal amino acids of modified Cu/Zn-SOD, met-phe-val linker, FXaI tyr26 to gly110; plasmid pDeo-S-XaI-11"f"
Inhibitory activity (specific activity), Thrombin (thrombin [8]): < 1 mu/mg | Inhibitory activity (specific activity), FXa (FXa; listed as Refolded 11"f" Batch 1): 150 mu/mg | Inhibitory activity (specific activity), FXa (FXa; listed as Refolded 11"f" Batch 2): 95 mu/mg | Inhibitory activity (specific activity), FXa (FXa; listed as Refolded 11"f" Batch 3): 89 mu/mg | specificity for FXa versus thrombin (FXa; ratio of specific activities): greater than 80 fold

Enterokinase (Biozyme, Great Britain) (enzyme)
cleavage efficiency by SDS-PAGE analysis [9]: 95%

B1: mature recombinant FXaI obtained by enterokinase cleavage of the pFSHI-6 prepeptide (protein)
chain: YEVIYVDDPCEDSDCEDGNKCSPVTNECDCSPVRCRLHCNFYVKDSNGCETCACEPKCKHKNCPTGHHCNKLTNKCELKKQRRMG
FXa inhibitory specific activity in the chromogenic assay, after removal of the extension peptide by chromatography [10]: 8000 mU/mg | FXa inhibitory specific activity in the chromogenic assay, following cleavage with enterokinase (mu/mg protein) [10]: 4000 and 4500 | concentration causing doubling of the APTT (Factor Xa [11]): 12.2 µg/mL

B2: cleaved, refolded product: mature FXaI from the FXaI dimer (plasmid pMLK-XaI-D-11"m") cleaved with CNBr, then refolded (protein)
chain: B1 chain
specific FXa inhibitory activity (FXa; Route I: dimer cleaved with CNBr, then refolded): 1900 mU/mg

B3: mature recombinant FXaI obtained by CNBr cleavage of the FXaI dimer (protein)
chain: B1 chain
specific activity in the chromogenic assay (route II: refolded, then cleaved with CNBr), B [12]: 4700 mu/mg | specific activity in the chromogenic assay (route II: refolded, then cleaved with CNBr), A [13]: 2470 mu/mg | specific FXa inhibitory activity in the chromogenic assay (route I: cleaved, then refolded) [14]: 1900 mU/mg

B4: FXaI prepeptide expressed by plasmid pFSHI-6 (Met-His-His-His-His-His-His-Gly-Thr-Asp-Asp-Asp-Asp-Lys-FXaI) (protein)
chain: MHHHHHHGTDDDDKYEVIYVDDPCEDSDCEDGNKCSPVTNECDCSPVRCRLHCNFYVKDSNGCETCACEPKCKHKNCPTGHHCNKLTNKCELKKQRRMG
FXa inhibitory specific activity in the chromogenic assay, prior to cleavage (mu/mg protein) [10]: 1000 and 1200
